In patent publication US20030167486:

Target: human APP London (V717F), P05067

B1: human BACE (protein)
chain: ETDEEPEEPGRRGSFVEMVDNLRGKSGQGYYVEMTVGSPPQTLNILVDTGSSNFAVGAAPHPFLHRYYQRQLSSTYRDLRKGVYEPYTQGKWEGELGTDLVSIPHGPNVTVRANIAAITESDKFFINGSNWEGILGLAYAEIARPDDSLEPFFDSLVKQTHVPNLFSLQLCGAGFPLNQSEVLASVGGSMIIGGIDHSLYTGSLWYTPIRREWYYEVIIVRVEINGQDLKMDCKEYNYDKSIVDSGTTNLRLPKKVFEAAVKSIKAASSTEKFPDGFWLGEQLVCWQAGTTPWNIFPVISLYLMGEVTNQSFRITILPQQYLRPVEDVATSQDDCYKFAISQSSTGTVMGAVIMEGFYVVFDRARKRIGFAVSACHVHDEFRTAAVEGPFVTLDMEDCGYNIPQTDESTLMTIAYVMAAICALFMLPLCLMVCQWRCLRCLRQQHDDFADDISLLK
In the case of B1, the “12 kD beta-secretase fragment of APP on Western blot of brain homogenate” value is reported as “the 12 kD beta-secretase fragment of APP is strongly increased due to expression of transgenic beta-secretase” and the “sAPP alpha and sAPP beta fragments in supernatants of organotypic cerebellar slice cultures (ELISA)” value is reported as “the over-expression of beta-secretase in APP London single transgenic mice induces a preferential cleavage of APPV717F at the beta cut as demonstrated by the lack of sAPPalpha fragment detection and the increase of sAPPbeta”.
